Measurements taken from patent publication US6855495B1, “Toso as a target for drug screening” (Rigel Pharmaceuticals, Inc., priority 1998, dated 2005).
Read-outs that look alike come from different tables or passages of the source.

Experiments:
[1] = Gamen et al. 1996; cited from earlier work
[2] = test system: 70Z/3 cells
[3] = test system: Jurkat.ecoR cells; assay: anti-Fas mAb-induced apoptosis in Jurkat.ecoR cells expressing the construct; assay type: cell-based, human; conditions: for anti-Fas mAb-induced apoptosis: 10 ng/ml anti-Fas mAb, 24 hours, in words
Procedure: Jurkat cells that express the receptor for ecotropic murine retroviruses (“Jurkat.ecoR”) were infected with retroviruses that express Toso and control vectors, pBabeMN-Toso, pBabeMN-lacZ and pBabeMN-Lyt-2-α′(α′ form of mouse CD8α chain) (Tagawa, et al. (1986)). Jurkat.ecOR cells were infected with pBabeMN-lacZ, pBabeMN-Lyt-2-α′, and pBabeMN-Toso. At 72 hours postinfection, infection frequency of pBabeMN-lacZ and pBabeMN-Lyt-2α′ were determined to be 45% and 58%, respectively. Jurkat cells were then cultured with 10 ng/ml anti-Fas mAb for 24 hours. After 12 or 24 hours, the cells were stained with 100 μg/ml ethidium bromide (SIGMA) and 100 μg/ml acridine orange (SIGMA). Apoptotic cells and non-apoptotic cells were identified with UV microscopy as described (MacGahon, et al., The End of the (Cell) Line: Methods for the Study of Apoptosis in vitro, in Methods in cell biology, L. J. Schwartz and B. A. Osborne, eds., San Diego, Calif., Academic Press, Inc., pp. 172-173 (1995)).
Jurkat.ecOR cells were infected with pBabeMN-Lyt-2-α′. HA, pBabeMN-Toso. HA, pBabeMN-TosoΔ(377-390). HA, pBabeMN-TosoΔ(334-390). HA, pBabeMN-TosoΔ(281-390).HA, pBabeMNTosoΔ(252-390).HA and pBabeMN-TosoΔ(29-187).HA. Jurkat cells were cultured with 10 ng/ml anti-Fas mAb for 24 hours and apoptotic cells were counted. […] Deletions of regions of the cytoplasmic domain of Toso from 334 to 390 still inhibited apoptosis. Moreover, a deletion of Toso lacking the entire cytoplasmic domain still retained substantial anti-apoptotic ability. Thus, the cytoplasmic domain of Toso is not absolutely required for the anti-apoptotic effects on Fas antibody-stimulated cells.

[4] = test system: Jurkat.ecoR cells; assay: FADD-induced apoptosis in Jurkat.ecoR cells; assay type: cell-based, human; conditions: 24 hours postinfection with pBabeMN-FADD
Procedure: Fas-mediated apoptosis is activated through FADD. For FADD-induced apoptosis, mouse FADD (a gift from Dr. Angeles Estelles, Dept. Mol. Pharm., Stanford Univ.) was ligated into pBabeMN retroviral vector. Jurkat.ecoR cells expressing Lyt-2-α′ or Toso were infected with pBabeMN-LacZ or pBabeMN-FADD. After 24 hours infection with FADD, the cells were stained with ethidium bromide and acridine orange and counted the apoptotic cells. The effect of Toso on FADD-induced apoptosis was investigated by infecting Jurkat.ecoR cells expressing Lyt-2-α′ or Toso, with pBabeMN-LacZ or pBabeMN-FADD. The reinfection efficiency was approximately 40% using pBabeMN-LacZ. Jurkat.ecoR cells were infected with pBabeMN-Lyt-2-α′ and pBabeMN-Toso. Infection frequency of pBabeMN-Lyt-2-α′ was determined to be 72%. Jurkat.ecoR cells expressing Lyt-2-α′ or Toso were infected with pBabeMNLacZ or pBabeMN-FADD and apoptotic cells were counted at 24 hourrs postinfection. Infection frequency of pBabeMN-lacZ in Jurkat.ecoR cells expressing Lyt-2-α′ and Toso was determined to be 39% and 43%, respectively.

[5] = test system: Jurkat.ecoR cells; assay: staurosporine- and ceramide-induced apoptosis in Jurkat.ecoR cells; assay type: cell-based, human; conditions: 24 hours, any concentration
Procedure: Jurkat cells that express the receptor for ecotropic murine retroviruses (“Jurkat.ecoR”) were infected with retroviruses that express Toso and control vectors, pBabeMN-Toso, pBabeMN-lacZ and pBabeMN-Lyt-2-α′(α′ form of mouse CD8α chain) (Tagawa, et al. (1986)). Jurkat.ecOR cells were infected with pBabeMN-lacZ, pBabeMN-Lyt-2-α′, and pBabeMN-Toso. At 72 hours postinfection, infection frequency of pBabeMN-lacZ and pBabeMN-Lyt-2α′ were determined to be 45% and 58%, respectively. Jurkat cells were then cultured with 10 ng/ml anti-Fas mAb for 24 hours. After 12 or 24 hours, the cells were stained with 100 μg/ml ethidium bromide (SIGMA) and 100 μg/ml acridine orange (SIGMA). […]
Staurosporine is a bacterial alkaloid that is a broad spectrum inhibitor of protein kineses (Tamaoki and Nakano, Biotechnology, 8:732-735 (1990)) and induces programmed cell death in various cell lines and dissociated primary cells in culture (Ishizaki, et al, J. Cell Biol., 121:899-908 (1993); Jacobson, et al., Nature, 361:365-369 (1993); Raff, et al., Science. 262:695-700 (1993)). Ceramide generation is implicated in a signal transduction pathway that mediates programmed cell death induced by Fas and TNF-α (Cifone, et al., J. Exp. Med., 180:1547-1552 (1994); Obeid, et al., Science, 259:1769-1771 (1993)). pBabeMN-LacZ infected cells were counted by microscopic observation; infection frequency was determined to be 57%. […]

[6] = test system: Jurkat.ecoR cells; assay: TNF-α-induced apoptosis in Jurkat.ecoR cells; assay type: cell-based, human; conditions: 1 μg/ml TNF-α with 0.1 μg/ml CHX, 12 hours, versus Lyt-2-α′
Procedure: The Fas receptor has homology to the TNF-α receptor, and these two receptors share analogous signaling systems as well as several intracellular mediators (Hsu, et al., Cell, 84:299-308 (1996)). The protective effect of Toso against TNF-α-induced apoptosis was tested by culturing Jurkat.ecOR cells expressing Lyt-2-α′ or Toso with 10 ng/ml of anti-Fas mAb or 1 μg/ml of TNF-α in the presence of 0.1 μg/ml of cyclohexamide (CHX) for 12 hours and apoptotic cells were counted. The infection frequency of pBabeMN-Lyt-2-α′ was determined to be 58%. […] Thus the TNF-α and Fas signaling pathways may converge at a common point that can be inhibited by Toso.

[7] = test system: caspase-8; assay: Western blot of caspase-8 processing after Fas activation; assay type: cell-based, human; conditions: 50 ng/ml anti-Fas mAb, 6 hours, versus control Jurkat.ecoR cells
Procedure: The effect of overexpression of Toso on processing of caspase-8, which associates with FADD, was evaluated. […] To detect caspase-8, whole-cell lysates (2×10^6 cells per lane) were resolved by SDS-PAGE, transferred to an membrane and processed with goat anti-Mch5 p20 antibody (Santa Cruz Biotechnology, Inc., Santa Cruz, Calif. 95060, U.S.A.) as described above.

[8] = test system: cFLIP; assay: semi-quantitative RT-PCR of cFLIP mRNA expression; assay type: cell-based, human; conditions: Jurkat.ecoR cells
From the text: Recently several groups have reported cFLIP is a caspase-8 inhibitor. We performed semi-quantitative RT-PCR to detect […] expression. To detect […] expression, a 1.1 kbp fragment (998-2061) of the cFLIP gene (U97074) was amplified with primers 5'-[NT] ID NO:32) and 5'-[NT] ID NO:33) for 35 cycles as described above. The sequence of the 1.1 kbp PCR product was verified using cycle sequencing ready reaction kit (Perkin Elmer, Calif. 94404, U.S.A.).

[9] = test system: Bcl-2 and Bcl XL; assay: Western blot of Bcl-2 and Bcl XL expression levels in Toso expressing cells; assay type: cell-based, human; conditions: data not shown
Procedure: The downstream effects of Toso on known inhibitors of apoptosis, were evaluated by western blot analysis of Bcl-2 and BCI XL expression levels in Toso expressing cells. Bcl-2 overexpression can block Fas-induced apoptosis as well as staurosporine-induced apoptosis (data not shown). No change in the levels of expression of Bcl-2 or BcI XL was observed by Western blot (data not shown).

[10] = test system: Jurkat.ecoR cells; assay: PMA/Ionomycin-induced apoptosis in Jurkat.ecoR clones; assay type: cell-based, human; conditions: five pBabeMN-Toso-infected clones; 10 ng/ml PMA and 500 ng/ml Ionomycin, 24 hours
From the text: However, following activation with PMA/lonomycin one third of Jurkat cells were clearly resistant to anti-Fas mAb induced apoptosis.
We further tested whether Toso expression could rescue activation-induced programmed cell death. We randomly picked five pBabeMN-Toso-infected Fas resistant Jurkat T cell clones and used these to assay the inhibitory effect of Toso on PMA/lonomycin-induced apoptosis.

[11] = test system: human cell lines; assay: anti-Fas mAb-induced apoptosis in several human cell lines overexpressing Toso; assay type: cell-based; conditions: data not shown
From the text: Toso was expressed in several human cell lines including Jurkat cells, CemT4 cells (human T cell leukemia), SupT1 cells (human T cell leukemia, a kind gift from Dr. Cleary, M. L., Stanford Univ.), Oli-Ly8 cells (human B cell line; transformed with EBV), AMK cells (human B cell line; transformed with EBV), both a gift from Dr. Negrin, R. S., Stanford Univ., Reh cells (acute lymphocytic leukemia; non T; non B), HL-60 cells (promyelocytic leukemia) and HepG2 cells (hepatoma) using pBabeMN-Toso IRES neo to allow cotranslational selection with Geneticin (GIBCO BRL).

Molecule: DEVD-CHO
- ceramide-induced apoptosis [1]: does not inhibit

Molecule: Lyt-2: full length Lyt-2 (mouse CD8α), control [reference compound]
- massive / rapid cell death in 70Z/3 cells ([2]; after retroviral infection, in words): did not induce rapid cell death

B1: 4.8.HA: full-length Toso with C-terminal influenza hemagglutinin (HA) tag (protein)
chain: RILPEVKVEGELGGSVTIKCPLPEMHVRIYLCREMAGSGTCGTVVSTTNFIKAEYKGRVTLKQYPRKNLFLVEVTQLTESDSGVYACGAGMNTDRGKTQKVTLNVHSEYEPSWEEQPMPETPKWFHLPYLFQMPAYASSSKFVTRVTTPAQRGKVPPVHHSSPTTQITHRPRVSRASSVAGDKPRTFLPSTTASKISALEGLLKPQTPSYNHHTRLHRQRALDYGSQSGREGQGFHILIPTILGLFLLALLGLVVKRAVERRKALSRRARRLAVRMRALESSQRPRGSPRPRSQNNIYSACPRRARGADAAGTGEAPVPGPGAPLPPAPLQVSESPWLHAPSLKTSCEYVSLYHQPAAMMEDSDSDDYINVPA
modifications: left off: small tags and cut ends
notes: full-length Toso with C-terminal influenza hemagglutinin (HA) tag
- anti-Fas mAb-induced apoptosis [3]: markedly inhibited
- % Viable Cells [2]: 30 ± 4%
- massive / rapid cell death in 70Z/3 cells [2]: massive cell death was observed

B2: FADD: mouse FADD expressed from the pBabeMN retroviral vector, apoptosis inducer (protein, UniProt Q61160 1-205, looked up)
FAS-associated death domain …: MDPFLVLLHSLSGSLSGNDLMELKFLCRERVSKRKLERVQSGLDLFTVLLEQNDLERGHTGLLRELLASLRRHDLLQRLDDFEAGTATAAPPGEADLQVAFDIVCDNVGRDWKRLARELKVSEAKMDGIEEKYPRSLSERVRESLKVWKNAEKKNASVAGLVKALRTCRLNLVADLVEEAQESVSKSENMSPVLRDSTVSSSETP
- apoptosis induced in control Jurkat cells [4]: 45%

B3: Toso: novel 390-amino acid Ig superfamily type 1 membrane protein (SEQ ID NO:2), expressed from retroviral vector pBabeMN (protein, listed as Homo sapiens)
chain: MDRWLWPLYFLPVSGALRILPEVKVEGELGGSVTIKCPLPEMHVRIYLCREMAGSGTCGTVVSTTNFIKAEYKGRVTLKQYPRKNLFLVEVTQLTESDSGVYACGAGMNTDRGKTQKVTLNVHSEYEPSWEEQPMPETPKWFHLPYLFQMPAYASSSKFVTRVTTPAQRGKVPPVHHSSPTTQITHRPRVSRASSVAGDKPRTFLPSTTASKISALEGLLKPQTPSYNHHTRLHRQRALDYGSQSGREGQGFHILIPTILGLFLLALLGLVVKRAVERRKALSRRARRLAVRMRALESSQRPRGSPRPRSQNNIYSACPRRARGADAAGTGEAPVPGPGAPLPPAPLQVSESPWLHAPSLKTSCEYVSLYHQPAAMMEDSDSDDYINVPA
- Fas induced apoptosis in the presence of CHX ([3]; 10 ng/ml anti-Fas mAb with 0.1 μg/ml CHX, 12 hours): inhibited Fas induced apoptosis
- anti-Fas mAb-induced apoptosis [3]: resistant to Fas-mediated apoptosis over a range of antiFas dilutions
- surviving Jurkat cells that expressed GFP ([3]; pBabeMN-Toso-IRES-GFP-infected cells, five days with 50 ng/ml anti-Fas mAb): 99.7%
- ceramide-induced apoptosis [5]: not resistant
- staurosporine-induced apoptosis [5]: not resistant
- TNF-α-induced apoptosis [6]: protected against TNF-α-induced apoptosis
- FADD-induced apoptosis in cells constitutively expressing the construct [4]: failed to induce apoptosis
- processed form (p20) of FLICE after Fas activation [7]: greatly reduced
- cFLIP expression [8]: induced
- levels of expression of Bcl-2 or Bcl XL [9]: No change
- PMA/Ionomycin-induced apoptosis [10]: significant resistance
- apoptosis induced by anti-Fas mAb ([11]; all human T cell lines and B cell line Ocl-Ly8): inhibited
- protection against Fas-induced apoptosis ([11]; the other cell lines): no significant protection
- dead cells after infection ([2]; 70Z/3 cells infected with pBabeMN-Toso): about 70%
